Experimental findings from US10772972B2, “Anti-STEAP2 antibody drug conjugates, and compositions and uses thereof” (Regeneron Pharmaceuticals, Inc., priority 2016, dated 2020) are described below.

The test system of assay [1] is Jurkat cells (express human CD3). Put plainly: FACS binding titration of STEAP2xCD3 bispecifics on Jurkat cells. The note with it: 66.6 nM to 0.001 nM, 30 minutes at 4° C. Here is the method:
(§1) FACS Binding Titration on Jurkat Cells, PC3_STEAP2/1 Cells and cynomolgus T Cells: Flow cytometric analysis was utilized to determine binding of STEAP2×CD3 bispecific antibodies to Jurkat, PC3_STEAP2/1 chimeric and cynomolgus T cells, followed by detection with a phycoerythrin (PE)-labeled anti-human IgG antibody. Briefly, 2×10^5 cells/well were incubated for 30 minutes at 4° C. with a serial dilution of STEAP2×CD3 bispecific antibodies or control antibody (a human IgG1 antibody that binds a feline antigen with no cross-reactivity to STEAP2 or human or cynomolgus CD3) ranging from 66.6 nM to 0.001 nM. After incubation, the cells were washed twice with cold PBS containing 1% filtered FBS and a PE-conjugated anti-human secondary antibody was added to the cells and incubated for an additional 30 minutes. Wells containing no antibody or secondary antibody only were used as a control. After incubation, cells were washed, re-suspended in 200 μL cold PBS containing 1% filtered FBS and analyzed by flow cytometry on a BD FACS Canto II.

Assay [2] has as its system PC3_STEAP2/1 cells (PC3 engineered to express a STEAP2/1 chimeric construct). Put plainly: FACS binding titration of STEAP2xCD3 bispecifics on PC3_STEAP2/1 cells. The arrangement: species or system human. To be noted: 66.6 nM to 0.001 nM, 30 minutes at 4° C. Here is the method:
as §1

For assay [3], the system named is cynomolgus T cells. Put plainly: FACS binding titration of STEAP2xCD3 bispecifics on cynomolgus T cells. To be noted: 66.6 nM to 0.001 nM, 30 minutes at 4° C. On the technique in general: A flow cytometer gives signals particle by particle.
Assay [4] has as its system human PBMCs. Put plainly: T cell proliferation assay, human PBMC. Type of assay: cell-based. To be noted: with anti-CD28 200 ng/mL, 72 hours; read-out: hPBMC Proliferation [M] (EC50). The procedure: Thawed human or freshly isolated monkey PBMCs (50,000 cells/well) were incubated with 3-fold (human, concentration range: 5E-10M to 2.82E-15M; cynomolgus, concentration range: 1E-09M to 4.57E-13M) serial dilutions of STEAP2×CD3 bispecifics or isotype control in complete medium (RPMI supplemented with 10% FBS, 100 U/mL penicillin, 100 μg/mL streptomycin, 292 μg/mL L-glutamine) and a fixed concentration (human: 200 ng/mL, cyno: 500 ng/mL) of a commercial anti-CD28 antibody (Biolegend, Catalog #302914) in white flat bottom 96-well plates for 72 hours at 37° C. Isolated monkey PBMCs were from two donors (identified as mk8781M or mk9381M). Following incubation, CellTiter Glo® (Promega, Cat #7573) was added and luminescence, as readout for cell viability, was measured using a VICTOR X5 multi-label plate reader. Cell titer was calculated by dividing the luminescence of stimulated cells by the baseline luminescence of unstimulated cells.
All αSTEAP2×αCD3 bispecific antibodies induce human PBMC proliferation in the presence of a co-stimulatory anti-CD28 antibody (See Table 20 and FIG. 9). PBMCs were incubated with a serial dilution of bispecific antibodies or the control antibody and a fixed concentration of anti-CD28 for 72 hours, and cell viability was measured in a luminescence assay to detect live cells. […]

B1: BSSTEAP2/CD3-010: STEAP2×CD3 bispecific: anti-STEAP2 H1H7809N (SEQ 330), anti-CD3 H1H7198P (SEQ 1466), common LCVR of H1H7809N (antibody, V domains shown)
VH 1: QVQLVESGGGVVQPGRSLGLSCAASGFTFSSYGMHWVRQAPGKGLEWVAVIWYDGSNKYYVDSVKGRFTISRDNSKNTLYLQMNSLRAEDTAVYYCAREGLRFLENYYYYYGMDVWGQGTTVTVSS
VH 2: EVQLVESGGGLVQPGRSLRLSCAASGFTFADYTMHWVRQVPGKGLEWVSDISWNSGSKDYADSVKGRFTISRDNAKNFLYLQMNSLRAEDTALYYCVKYGSGYGKFYFYAMDVWGQGTTVTVSS
VL: EIVLTQSPGTLSLSPGERATLSCRASQSISSTYLAWYQQRPGQAPRLLIYGASSRATGIPDRFSGSGSGTDFTLTISRLEPEDFAVYYCQQYGTSPYTFGQGTKLEIK
On to B1, for which the EC50 in assay [1] is 13.6 nM; in assay [4], 6.55e-12 M. Also, the “FACS PC3_STEAP2/1 EC50 [M]” value in assay [2] was “No Binding”. Further, the “Cynomolgus T cells EC50 [M]” value in assay [3] was “Very Weak”.
